Results as given in article PMC9191634.
“And” between values parts separate entries of the source, which are not always exact repeats. Identical values can stand only once.

Key:
[1] = target: C6 peptide; assay: whole-cell patch clamp; details: +40 mV, HEK293T cells; for ratio to parent: parent: est. 1.0, read off a plot
[2] = target: human voltage-gated proton channel hHv1, Q96D96-1; assay: whole-cell patch clamp; details: +40 mV; HEK293T cells; parent: 0.031 ± 0.003 µM
[3] = target: human voltage-gated proton channel hHv1 (human) (UniProt Q96D96); assay: whole-cell patch clamp (block of H+ current); as a1 but test pulses to +20 mV
[4] = target: human voltage-gated proton channel hHv1 (human) (UniProt Q96D96)
[5] = target: hHv1-E196C (human) (UniProt Q96D96); assay: whole-cell patch clamp (block of H+ current)
[6] = target: hHv1-R211S (human) (UniProt Q96D96); assay: whole-cell patch clamp (block of H+ current)
[7] = target: hHv1-V187C (human) (UniProt Q96D96); assay: whole-cell patch clamp (block of H+ current)
[8] = target: hHv1-L203C (human) (UniProt Q96D96); assay: whole-cell patch clamp (block of H+ current)
[9] = target: hHv1-E192C (human) (UniProt Q96D96); assay: whole-cell patch clamp (block of H+ current)
[10] = target: hHv1-D185C (human) (UniProt Q96D96); assay: whole-cell patch clamp (block of H+ current)
[11] = target: hHv1-R205N (human) (UniProt Q96D96); assay: whole-cell patch clamp (block of H+ current)
[12] = target: hHv1-L200C (human) (UniProt Q96D96); assay: whole-cell patch clamp (block of H+ current)
[13] = target: hHv1-H193C (human) (UniProt Q96D96); assay: whole-cell patch clamp (block of H+ current)
[14] = target: human voltage-gated proton channel hHv1 (human) (UniProt Q96D96); assay: whole-cell patch clamp (block of H+ current)
[15] = target: hHv1-G199C (human) (UniProt Q96D96); assay: whole-cell patch clamp (block of H+ current)

For “human voltage-gated proton channel hHv1 (from UniProt Q96D96-1) L201C”, which ratio to parent [1] is on record?
Its ratio to parent is 3.6.

With C6 peptide R36A as the substance, how does the Ki [2] read?
The Ki was 15 µM.

How did the ratio to parent [1] turn out when “human voltage-gated proton channel hHv1 (from UniProt Q96D96-1) I202C” was run?
Its ratio to parent is 30.

“human voltage-gated proton channel hHv1 (from UniProt Q96D96-1) L188C” was tested. Which ratio to parent [1] did it give?
The ratio to parent was 11.

Which ratio to parent [1] does the source give for “human voltage-gated proton channel hHv1 (from UniProt Q96D96-1) I183C” here?
Its ratio to parent is 1.1.

With “human voltage-gated proton channel hHv1 (from UniProt Q96D96-1) L198C” as the substance, how does the ratio to parent [1] read?
Its ratio to parent is 1.4.

Which ratio to parent [1] does the source give for “human voltage-gated proton channel hHv1 (from UniProt Q96D96-1) F195C” here?
Its ratio to parent is 3.6.

How did the ratio to parent [1] turn out when “human voltage-gated proton channel hHv1 (from UniProt Q96D96-1) L184C” was run?
The ratio to parent was 22.

How did the ratio to parent [1] turn out when “human voltage-gated proton channel hHv1 (from UniProt Q96D96-1) L189A” was run?
Its ratio to parent is 0.87.

Which ratio to parent [1] does the source give for “human voltage-gated proton channel hHv1 (from UniProt Q96D96-1) I186C” here?
Its ratio to parent is 1.4.

How did the ratio to parent [1] turn out when “human voltage-gated proton channel hHv1 (from UniProt Q96D96-1) L204C” was run?
Its ratio to parent is 2.3.

“human voltage-gated proton channel hHv1 (from UniProt Q96D96-1) Q194C” was tested. Which ratio to parent [1] did it give?
The ratio to parent was 6.

Which ratio to parent [1] does the source give for “human voltage-gated proton channel hHv1 (from UniProt Q96D96-1) L203A” here?
The ratio to parent was 0.28.

With “human voltage-gated proton channel hHv1 (from UniProt Q96D96-1) Q191C” as the substance, how does the ratio to parent [1] read?
Its ratio to parent is 8.7.

How did the ratio to parent [1] turn out when “human voltage-gated proton channel hHv1 (from UniProt Q96D96-1) A197C” was run?
The ratio to parent was 7.6.

How did the Ki [3] turn out when C6 peptide (designed binder) was run?
Its Ki is 0.0049 µM.

And the koff [3]?
The koff was 0.0043 s⁻¹.

And the kon [3]?
Its kon is 400000 M⁻¹ s⁻¹.

What about the fraction of H+ current blocked by 250 nM C6, whole-cell patch clamp in HEK293T cells, -20 mV to +40 mV [4] of the same substance?
The fraction of H+ current blocked by 250 nM C6, whole-cell patch clamp in HEK293T cells, -20 mV to +40 mV was 90%.

And the Ki mutation/Ki WT [5]?
The Ki mutation/Ki WT was > 43 fold.

And the Ki [6]?
The Ki was 0.0006 µM.

What about the koff [6] of the same substance?
The koff was 0.0008 s⁻¹.

What about the kon [6] of the same substance?
The kon was 500000 M⁻¹ s⁻¹.

What about the Ki mutation/Ki WT [7] of the same substance?
Its Ki mutation/Ki WT is > 43 fold.

What about the fold enhancement of C6 inhibition against WT hHv1 [8] of the same substance?
Its fold enhancement of C6 inhibition against WT hHv1 is > 4 fold.

And the Ki mutation/Ki WT [9]?
The Ki mutation/Ki WT was > 43 fold.

And the fold enhancement of C6 inhibition against WT hHv1 [10]?
Its fold enhancement of C6 inhibition against WT hHv1 is > 4 fold.

What about the Ki [11] of the same substance?
Its Ki is 0.161 µM.

And the koff [11]?
The koff was 0.19 s⁻¹.

And the kon [11]?
The kon was 300000 M⁻¹ s⁻¹.

What about the Ki mutation/Ki WT [12] of the same substance?
The Ki mutation/Ki WT was > 43 fold.

What about the Ki mutation/Ki WT [13] of the same substance?
Its Ki mutation/Ki WT is > 43 fold.

And the kon [14]?
Its kon is 300000 M⁻¹ s⁻¹ and 500000 M⁻¹ s⁻¹.

What about the Ki [15] of the same substance?
Its Ki is 0.0019 µM.

“human voltage-gated proton channel hHv1 (from UniProt Q96D96-1) F190C” was tested. Which ratio to parent [1] did it give?
Its ratio to parent is 0.62.

“human voltage-gated proton channel hHv1 (from UniProt Q96D96-1) V187A” was tested. Which ratio to parent [1] did it give?
The ratio to parent was 130.

“human voltage-gated proton channel hHv1 (from UniProt Q96D96-1) E192A” was tested. Which Ki ([1]; parent: 0.031 ± 0.003 µM) did it give?
Its Ki is 18 µM.
